Measured values published in US20150044214A1 (Hoffmann-La Roche, published 2015).

Target: T1, human VEGF-A (human, UniProt P15692-4 27-191)
T1 construct: ELISA methods name 'full-length VEGF165-His protein (R&D Systems)'; Biacore methods name rhVEGF (R&D Systems Cat. No. 293-VE); also called VEGF165; VEGF165-His
Test: ELISA and Biacore (SPR), incl. simultaneous binding (bridging ELISA, sandwich SPR)

T1 sequence (P15692 other isoform, or with tags, fused parts or gaps limits assumed): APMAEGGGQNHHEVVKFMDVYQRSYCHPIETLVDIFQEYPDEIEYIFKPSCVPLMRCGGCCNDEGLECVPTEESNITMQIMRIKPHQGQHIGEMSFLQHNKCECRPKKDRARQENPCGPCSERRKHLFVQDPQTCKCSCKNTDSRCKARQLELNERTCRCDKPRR

B1: bispecific, tetravalent antigen binding protein recognizing Ang-2 and VEGF-A (bispecific antibody, human IgG1, kappa)
heavy 1: not shown
light 1: QPGLTQPPSVSVAPGQTARITCGGNNIGSKSVHWYQQKPGQAPVLVVYDDSDRPSGIPERFSGSNSGNTATLTISRVEAGDEADYYCQVWDSSSDHYVFGTGTKVTVLRTVAAPSVFIFPPSDEQLKSGTASVVCLLNNFYPREAKVQWKVDNALQSGNSQESVTEQDSKDSTYSLSSTLTLSKADYEKHKVYACEVTHQGLSSPVTKSFNRGEC
heavy 2: not shown
light 2: DIQMTQSPSSLSASVGDRVTITCSASQDISNYLNWYQQKPGKAPKVLIYFTSSLHSGVPSRFSGSGSGTDFTLTISSLQPEDFATYYCQQYSTVPWTFGQGTKVEIKSSASTKGPSVFPLAPSSKSTSGGTAALGCLVKDYFPEPVTVSWNSGALTSGVHTFPAVLQSSGLYSLSSVVTVPSSSLGTQTYICNVNHKPSNTKVDKKVEPKSC
notes: Expressed transiently in HEK293F cells; also called bispecific tetravalent <VEGF-Ang-2> antibody; <Ang-2, VEGF> bispecific tetravalent antibody
B1: binds.
